Assay results taken from patent US20160208003A1 (AFFITECH RESEARCH, published 2016).
Changes are numbered by the printed parent chain. Where “and” joins values, the source holds several entries; their conditions need not be identical. Identical values can stand only once. Like-named read-outs stand apart in the source and are kept apart here.

Key:
[1] = biological target: T1, human CC chemokine receptor 4 (CCR4) (human, UniProt P51679 1-360); assay: cell-based or functional assay
T1 sequence (looked up): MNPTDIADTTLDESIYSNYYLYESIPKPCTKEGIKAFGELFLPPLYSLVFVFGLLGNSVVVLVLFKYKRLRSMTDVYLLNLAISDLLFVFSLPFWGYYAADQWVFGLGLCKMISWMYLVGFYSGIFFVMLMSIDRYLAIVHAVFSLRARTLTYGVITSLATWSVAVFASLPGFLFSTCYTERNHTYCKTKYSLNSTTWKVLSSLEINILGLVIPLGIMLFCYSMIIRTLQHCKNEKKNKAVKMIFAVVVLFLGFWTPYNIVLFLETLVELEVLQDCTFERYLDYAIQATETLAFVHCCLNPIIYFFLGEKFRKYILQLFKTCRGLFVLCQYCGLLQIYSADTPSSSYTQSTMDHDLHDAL

[2] = biological target: T1, human CC chemokine receptor 4 (CCR4); assay: calculated from the IC50; DT-40-CCR4+ cells, competitor 3.3 nM biotinylated IgG 9E
Experimental: (§1) DT40 and CCRF-CEM cells were cultivated as described in Example 2. The cells were harvested from culture flasks, washed 2 times with PBS (400×g, 5 min, 4° C.) and resuspended in PBS containing 0.2% BSA and 0.09% NaN3. 1×10^5 cells per well were aliquoted into V-shaped 96-well plates (Griner Bio-One, Frikenhausen, Germany). Cells were centrifuged (400×g, 5 min, 4° C.) and resuspended in 50 μl IgG 9E10J or KM3060var (dilution series starting at 5 μg/ml) mixed with biotinylated competitor antibody 9E (0.1 or 0.5 μg/ml). The cells were incubated for 2 hours at 4° C., mixing with a pipette every 45 min. The cells were washed three times with 150 μl PBS with 0.2% BSA and 0.09% NaN3 and stained with 3 μg/ml streptavidin PE (BD Biosciences) for 45 minutes at 4° C. Cells were washed, resuspended in 200 μl PBS with 0.2% BSA and 0.09% NaN3, and transferred to a U-shaped 96 well Costar (Corning, Schiphol-Rijik, The Netherlands) plate for flow cytometry using an FACS Canto II flow cytometer (BD Biosciences, Heidelberg, Germany).

[3] = biological target: T1, human CC chemokine receptor 4 (CCR4); assay: flow cytometry competition on DT-40-CCR4+ cells; unlabelled IgG titrated, competitor 0.7 nM biotinylated IgG 9E
Experimental: (§2) Further competition experiments were carried out to assess whether or not the test antibodies recognise the same or overlapping epitopes, and to determine their relative affinities for CCR4. Antibodies 9E10J, 9E and KM3060var were tested using labelled 9E as a competitor.
as §1

[4] = biological target: T1, human CC chemokine receptor 4 (CCR4); assay: flow cytometry competition on CCRF-CEM cells; IgG titrated, competitor biotinylated TARC (ca. 20 nM)
Experimental: The competition binding assays were performed with biotinylated MDC or biotinylated TARC on DT-40-CCR4+ and CCRF-CEM cells. DT40 and CCRF-CEM cells were cultured as described in Example 2. TARC and MDC were biotinylated using standard procedures. The biotinylation process causes some losses, so the concentrations of biotinylated MDC and TARC recited herein are approximate.
The cells were harvested from culture flasks, washed 2 times with PBS (400×g, 5 min, 4° C.) and resuspended in PBS containing 0.2% BSA and 0.09% NaN3. 1×10^5 cells per well were aliquoted into V-shaped 96-well plates (Greiner Bio-One, Frikenhausen, Germany). Cells were centrifuged (400×g, 5 min, 4° C.) and resuspended in 50 μl IgG, single chain or unlabeled ligand (1:10 dilution series starting on 100/500/26, 4 μg/ml) mixed with a fixed concentration of biotinylated ligand (10 or 20 nM, see legend to FIG. 24). The cells were incubated for 2 hours at 4° C. and mixed with a pipette every 45 min. The cells were washed three times with 150 μl PBS with 0.2% BSA and 0.09% NaN3 and stained with 3 μg/ml streptavidin PE (BD Biosciences) for 45 minutes at 4° C. […] Apparent binding affinities (KD) were calculated according to the following equation derived from previously described methods (Kipriyanov et al, 1997b; Schodin & Kranz, 1993): […]

[5] = biological target: T1, human CC chemokine receptor 4 (CCR4); assay: cell-based or functional assay; remark: listed apart in the source
[6] = biological target: T1, human CC chemokine receptor 4 (CCR4); assay: flow cytometry competition on DT-40-CCR4+ cells; unlabelled IgG titrated, competitor 3.3 nM biotinylated IgG 9E
Experimental: as §2, §1

[7] = biological target: T1, human CC chemokine receptor 4 (CCR4); assay: flow cytometry competition; antibody titrated, competitor biotinylated MDC; cell line not given
Experimental: (§3) The cells were harvested from culture flasks, washed 2 times with PBS (400×g, 5 min, 4° C.) and resuspended in PBS containing 0.2% BSA and 0.09% NaN3. 1×10^5 cells per well were aliquoted into V-shaped 96-well plates (Greiner Bio-One, Frikenhausen, Germany). Cells were centrifuged (400×g, 5 min, 4° C.) and resuspended in 50 μl IgG, single chain or unlabeled ligand (1:10 dilution series starting on 100/500/26, 4 μg/ml) mixed with a fixed concentration of biotinylated ligand (10 or 20 nM, see legend to FIG. 24). The cells were incubated for 2 hours at 4° C. and mixed with a pipette every 45 min. The cells were washed three times with 150 μl PBS with 0.2% BSA and 0.09% NaN3 and stained with 3 μg/ml streptavidin PE (BD Biosciences) for 45 minutes at 4° C. Cells were washed, resuspended in 200 μl PBS with 0.2% BSA and 0.09% NaN3, and transferred to a U-shaped 96 well Costar (Corning, Schiphol-Rijik, The Netherlands) plate for flow cytometry using an FACS Canto II flow cytometer (BD Biosciences, Heidelberg, Germany). […] Apparent binding affinities (KD) were calculated according to the following equation derived from previously described methods (Kipriyanov et al, 1997b; Schodin & Kranz, 1993): […]

[8] = biological target: T1, human CC chemokine receptor 4 (CCR4); assay: flow cytometry, saturation titration of IgG on CCRF-CEM cells; one site-specific binding fit
[9] = biological target: T1, human CC chemokine receptor 4 (CCR4); assay: flow cytometry competition; antibody titrated, competitor biotinylated TARC; cell line not given
Experimental: as §3

[10] = biological target: T1, human CC chemokine receptor 4 (CCR4); assay: calculated from the IC50; CCRF-CEM cells, competitor 0.7 nM biotinylated IgG 9E
Experimental: as §1

[11] = biological target: T1, human CC chemokine receptor 4 (CCR4); assay: cell-based or functional assay; remark: listed apart in the source

B1: 9E10J IgG (full length human IgG1, lambda) (antibody, V domains shown)
VH: QVQLVQSGAEVKKPGSSVKVSCKASGGTFSSYAISWVRQAPGQGLEWMGGIIPIFGTANYAQKFQGRVTMTRDTSTSTVYMELSSLRSEDTAVYYCARRGGSYFDYWGQGTLVTVSS
VL: SYVLTQPPSASGTPGQSVTISCSGSTSNIGSHYVFWYQQLPGTAPRLLIYRNHQRPSGVPDRLSGSKSGTSASLAISGLRSEDEADYYCAVWDDTLSGWVFGGGTKLTVLG
notes: also called IgG 9E10J; unmodified 9E10J
ADCC of CCRF-CEM cells, EC50 (mean, N=5) [1]: 24.7 ng/mL | Kd [2]: 0.09 nM | IC50 [3]: 0.06 nM | IC50 [4]: 4.26 nM and 4.57 nM | ADCC of CCRF-CEM cells, EC50 (mean, N=2) [5]: 8.7 ng/mL | IC50 [6]: 0.15 nM | IC50 [7]: 0.85 nM | Kd [8]: 0.13 nM | IC50 [9]: 2.5 nM | Kd [10]: 0.06 nM

B2: 9E IgG (full length human IgG1, lambda) (antibody, V domains shown)
VH: B1 VH with S31N, M70I, R72A, T74E, V79A
VL: B1 VL
notes: also called IgG 9E; IgG1 9E
ADCC of CCRF-CEM cells, EC50 (mean, N=2) [1]: 186 ng/mL | ADCC of CCRF-CEM cells with human PBMCs, EC50 [11]: 46 ng/mL | Ca++ flux in CCRF-CEM cells: signal response to MDC stimulation (% of MDC in the absence of IgGs), IgG 10 µg/mL [11]: 64% | Ca++ flux in CCRF-CEM cells: signal response to TARC stimulation (% of TARC alone), IgG 10 µg/mL [11]: 3% | IC50 [3]: 0.44 nM | IC50 [6]: 3.5 nM | IC50 [7]: 3.9 nM | Kd [8]: 0.37 nM | IC50 [9]: 12.5 nM | Kd [10]: 0.33 nM
